The DeepSol protein solubility set

test: soluble on expression in E. coli; label from the status in PepcDB or PDB records

Sequence	soluble on expression in E. coli
MGKNVVVLGTQWGDEGKGKVVDLLTERAKYVVRYQGGHNAGHTLVINGEKTVLHLIPSGILRENVISIIGNGVVLAPDALMKEMTELEARGVPVRERLLLSEACPLILPYHVALDNAREKARGAKAIGTTGRGIGPAYEDKVARRGLRVSDLFNKETFAIKLKEIVEYHNFQLVHYYKEAAVDYQKVLDDVLAIADILTAMVVDVSELLDNARKQGELIMFEGAQGTLLDIDHGTYPYVTSSNTTAGGVATGSGLGPRYVDYVLGIVKAYSTRVGAGPFPTELNDETGEFLRKQGNEYGATTGRSRRTGWLDIVAVRRAVQINSLSGFCMTKLDVLDGLKEVKLCVGYRMPDGREVDTTPLAAEGWEGIEPIYETMPGWSETTFGVKEHSKLPQAALNYIQRVEELTGVPIDIISTGPDRDETMILRDPFDA	soluble
MGKPTGFMEIKREKPAERDPLTRLKDWKEYSAPFSEEASKRQGARCMDCGTPFCQIGADINGFTSGCPIYNLIPEWNDLVYRGRWKEALERLLKTNNFPEFTGRVCPAPCEGSCTLAISDPAVSIKNIERTIIDKGFENGWIQPRIPKKRTGKKVAIVGSGPAGLASADQLNQAGHSVTVFERADRAGGLLTYGIPNMKLEKGIVERRIKLLTQEGIDFVTNTEIGVDITADELKEQFDAVILCTGAQKQRDLLIEGRDSKGVHYAMDYLTLATKSYLDSNFKDKQFIDAKGKDVIVIGGGDTGADCVATALRQKAKSVHQFGKHPKLPPARTNDNMWPEQPHVFTLEYAYEEREAKFGRDPREYSIQTTKMVADKNGKLKELHTIQMEKVKNEHGKYEFRELPGTEKVWPAQLVFIAIGFEGTEQPLLKQFGVNSVNNKISAAYGDYQTNIDGVFAAGDARRGQSLIVWAINEGREVAREVDRYLMGSSVLPLEHHHHHH	soluble
MGKVNVAKLRYMSRDDFRVLTAVEMGMKNHEIVPGSLIASIASLKHGGCNKVLRELVKHKLIAWERTKTVQGYRLTNAGYDYLALKTLSSRQVVESVGNQMGVGKESDIYIVANEEGQQFALKLHRLGRTSFRNLKNKRDYHKYRHNVSWLYLSRLSAMKEFAYMKALYERKFPVPKPIDYNRHAVVMELINGYPLCQIHHVEDPASVYDEAMELIVKLANHGLIHGDFNEFNLILDESDHITMIDFPQMVSTSHPNAEWYFDRDVKCIKDFFMKRFSYESELFPTFKDIRREDTLDVEVSASGYTKEMQADDELLHPLGPDDKNIETKEGSEFSFSDGEVAEKAEVYGSENESERNCLEESEGCYCRSSGDPEQIKEDSLSEESADARSFEMTEFNQALEEIKGQVVENNSVTEFSEEKNRTENYNRQDGQRVQGGVPAGSDEYEDECPHLIALSSLNREFRPFRDEENVGAMNQYRTRTLSITSSGSAVSCSTIPPELVKQKVKRQLTKQQKSAVRRRLQKGEANIFTKQRRENMQNIKSSLEAASFWGE	not soluble
MGLFDRLRAGLAKTRERLLKAIPWGGDPEEVLEELEMALLAADVGVAATEELLKEVRASGRRDLKEVVKEKLVQMLEPDERRATLRKLGFRPQKLRPVEPQGHVVMVVGVNGVGKTTTIAKLGRLYQGLGKKVLFCAGDTFRAAGGAQLAEWGKRLGIPVIQGPEGADPAALAFDAAKARRARGLDLLFVDTAGRLHTKQGLMEELKKVKRAIAKADPGEPGEVWLVLDAVTGQNGLEQAKRFHEAVGLTGVIVTKLDGTAKGGVLVPIVRTLKVPIRFIGVGEGPDDLQPFDAEAFVEALLEA	soluble
MGLFLEDLAVGDRFDSARHRVEAAAIKAFAGEFDPQPFHLDEEAARHSLFGGLAASGWHTAAITMRLLVTSGLPLAQGIIGAGTELSWPNPTRPGDELHVETTVLAITPSKSRPDRAIVTCQSDTLNQRGEVVQRSTAKVVVFRRPLEHHHHHH	soluble
MGLHPTLGEHGERELLALQKVDYPKGDVKAQAKHTARTLLECYNCHSLGEYNTLLNLYNITVYEVRGSVDGKEYHGIMYGALDDNGQQVGTPFKSSKFGKVFGYEALQKKFAASAEKVKKDNLPERLEHHHHHH	soluble
MGLIKAATSSVGGGLADQWLEVIEPDNMGDTTVMTKGVFVRKDDKRGSNRKGTDDVLTDGSVVHVYPNMMMLLVDGGKIIDYTAEEGYYTVKNDSAPSMFNGSLKDAIAETFSRFKFGGVTPQKQQVFYINLQEIKGIKFGTPAPLNYFDNFYNAELFLRAHGNYSIKITDPLLFYTNAIPKNQTQVDINDINEQYLAEFITALQAAINQMSADGQRISYVPSKSVELSKYMQTALDEDWRTNRGMEIVSVAVASISYTDDSTKLINMRNEGAMLSDPGVREGYVQGSLARGMEAAGKNEGGAMSGFMGVGMGMNANGNYFAQASQTNQQQMQEKQNQQNAQGATDTWTCPQCGTENTGKFCSNCGTPKPTNEKPKLEMKCSECSEIVDLSNGIPKFCPHCGKPFQGVPL	not soluble
MGLIKAATSSVGGGLADQWLEVIEPDNMGDTTVMTKGVFVRKDDKRGSNRKGTDDVLTDGSVVHVYPNMMMLLVDGGKIIDYTAEEGYYTVKNDSAPSMFNGSLKDAIAETFSRFKFGGVTPQKQQVFYINLQEIKGIKFGTPAPLNYFDNFYNAELFLRAHGNYSIKITDPLLFYTNAIPKNQTQVDINDINEQYLAEFITALQAAINQMSADGQRISYVPSKSVELSKYMQTALDEDWRTNRGMEIVSVAVASISYTDDSTKLINMRNEGAMLSDPGVREGYVQGSLARGMEAAGKNEGGAMSGFMGVGMGMNANGNYFAQASQTNQQQMQEKQNQQNAQGATDTWTCPQCGTENTGKFCSNCGTPKPTNEKPKLEMKCSECSEIVDLSNGIPKFCPHCGKPFQGVPLLEHHHHHH	soluble
MGLISKNRGPCQVCHNTETTRRHFGIISCTACAAFFRRSIGMQYLCTAENRCTISFDRKFFCRACRYASCLKAGMKLELIRKQKNNIYLRFPDAASNQQNLVRDSMSPATSEGGQSSSSKTDEESDDPEYSKILKMYHDDLLQYYVKEVKKMMAEKRRGCEKNTLQIKTISDLMLITARQSGPSMEECLRCPGVDMLEKEDVEALLRYYRFSNIWVDSVLIDSVLESAKGDSHTDTDDRLSRFIQEVKSTLGSSLAHLNLNIYEFAAFKALCIWKLRFYETSFAQKIIAHEHYEGVTGALRNYYENCTELADMEIAIRIGDITLQIVTVQNTYHEMVRLYYQIGMPL	not soluble
MGLPAHHIDAFLDRLRTAHYSEVSLRKKRRVLCAFSGWMKHRNIDLIDLDESVTARFMKRMIDASRDRVQRARPTLRQFLAYLRAEAIVCSPTLGSQSAIAHTYRRYLDYLRQDRGLAKNSLLVYGPFIRDFLDSHSAGDGSLLPDAFDAVTIRNHLLARSKGRSAEYTRLMAVALRSFCHFLFLRGDTARDLAGSVPSVRKWRQSTVPTFLTPEQQEALIASADRSTPTGLRDYAILLLLARLGLRAGEIIEIELDDIHWRSGELVVHGKGQMVEHVPLSSEVGAAIATYLRDGRGASASRRVFLRRLAPRVGLAGPAAIGKIVCQAFARVGFRPACRGAAHLFRHGLATTMIRHGASMAEIAEVLRHRSPDSTAIYAKVAFEDLRGVARSWPTAGGAILEHHHHHH	soluble
MGMRLICLNGWGGKLHDKLVPYIASSDPDILCLQEVVHTPAATQDWLSYRDHGVELPQRANFFRDVAEALPDHVAIFCPAAQGDLWQGETRYPSQFGLATFVRKSIAIIAQAQGFVHGVFSADGYGNHPRSRTAHAIRVFDFTTGQPVVIAHMHGLRDLEGKHDIPARLHQAKRLVQFVKNIAEDGDRVIVCGDFNVLPDSRTFAVLNELDLVELVTTRGFTDTRTSHYAKPNRYADYLLVNPAVKVSQFDVVRQPEVSDHCPLLLEFSMAGDPLEHHHHHH	not soluble
MGMYFVGIDGGGTSCRARIKDSQGNFLGEAKSGSANIMLGAEIAMASILESITSAAEQGGLTQQDFASMHVGLALAGAEHKASWQAFMSLPHPFASMTLNTDAYGACVGAHNGEDGAIMIAGTGSCGIYLKGLEQHVVGGREFPISDQGGGAVMGLRLVQQVLLAEDGIREKTPLAQHVMAYFENDVDNVVAWSKQALPRDYGQFSPAIFQHAEQGDALAIEMLKQTAADIEMFLVALNKRGATRICLMGSIAERILRWLSPPVQQWVVEPQFDAIEGAIMFAGKPEHNLYSLSAALEHHHHHH	not soluble
MGNESTPLRTITQALKLARPGTVIQLTPGNYSVETGETFPLMLKPGVSIQGNTSNKGQEVKIQGGGLFLSRSFGGQNVAIVGANQAGLTGVTITNPNPRGYGLWIESSNPVISENTFTGNTQDGISVTGNSATTITKNYFYRNGANGITIGGNSPAQVRENLFEETGFGINVAQNAVPMLVSNQIQNNRSGIIVQANARPILRNNLIQGSKEDGVVAIAQAMPDLGNATEAGGNEFRNNARHDINASAAKQAIAAVGNILDTKRITGKVALEHHHHHH	not soluble
